Assay results: paper PMC4405178 (Biochemistry, 2015)

Tests used:
[1] = target: Ste2p R58L, S95Y (Saccharomyces cerevisiae) (UniProt D6VTK4); test: flow cytometry on cells
[2] = target: Ste2p R58Q, S95Y (Saccharomyces cerevisiae) (UniProt D6VTK4); test: flow cytometry on cells
Ste2p R58Q, S95Y (Saccharomyces cerevisiae), sequence (D6VTK4 1-303 R58Q/S95Y): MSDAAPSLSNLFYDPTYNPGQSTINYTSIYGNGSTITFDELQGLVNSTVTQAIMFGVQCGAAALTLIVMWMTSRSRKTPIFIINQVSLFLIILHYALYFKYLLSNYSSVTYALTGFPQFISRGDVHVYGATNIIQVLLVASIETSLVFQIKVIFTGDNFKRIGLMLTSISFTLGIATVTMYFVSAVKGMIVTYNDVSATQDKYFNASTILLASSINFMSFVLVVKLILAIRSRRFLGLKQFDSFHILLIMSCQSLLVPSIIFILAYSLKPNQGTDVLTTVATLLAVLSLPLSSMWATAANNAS

Ste2p R58L, S95Y (Saccharomyces cerevisiae), sequence (D6VTK4 1-303 R58L/S95Y): as the sequence (D6VTK4 1-303 R58Q/S95Y) above, with Q58L counted along it

ligand binding at 300 nM ligand, % of wild-type levels (% of wild-type levels) [1]: 13.7
ligand binding at 300 nM ligand, % of wild-type levels (% of wild-type levels) [2]: 16.8
Substance: [K^7(NBD),Nle^12] α-factor (peptide)
